This note sets out measurements from PMC8097376 (EMBO Reports, 2021).

In experiment [1] the target is T1, SARS-CoV-2 spike receptor-binding domain (RBD) (SARS-CoV-2, UniProt P0DTC2, biotinylated for BLI (site not stated); covalently coupled to MagPlex beads by EDC/sNHS in the bead assays). The experiment in a line: BLI. The note with it: both partners purified.
For experiment [2], the target named is T1, SARS-CoV-2 spike receptor-binding …. The experiment in a line: bead-based multiplex ACE2 competi. The following applies: both partners purified.

As usually defined, the Kd is the concentration at which binding is half-saturated. A low value points to tighter binding. What is called IC50 is the concentration needed to halve the response being measured.

B1: nanobody NM1226 (VHH)
VHH: QVQLVESGGGSVQPGGSLRLSCLGSGSLDYYAIGWFRQAPGKEREGVSCIASSGDRTIYADSVKGRFTISRDYGKNTVYLQMNSLKPEDTAMYYCAALQGSYYYTGFVANEYDYWGQGAPVTVSS
In the case of B1, the Kd in experiment [1] came to 3.66 nM. In experiment [2], this molecule showed an IC50 of 0.82 nM.
